Measurements: patent US5534428

Test system: SstI restriction endonuclease (Streptomyces stanford ATCC 29415)
Test: cleavage_in_vitro
Conditions: pSst105 crude extract; REact 2 buffer, 37 C, 1 h; assay substrate Ad-2 DNA per Example 1.7

Q: Adenovirus-2 DNA was tested. Which activity (units per g cells) did it give?
A: > 400000
